Measurements from patent publication US20140087995A1 (published 2014).
Numbered stars: 1 amine (or outer) side, 2 acyl side, 3 side chain; on linkers, the order of the positions; unused ones are H or OH. Bridge positions count the residues as written; N and C are the ends. Side chains are listed from the residue outwards. Ends that are not written are not given here. * marks the point of attachment. C20 diacid = O=C(O)CCCCCCCCCCCCCCCCCCC(=O)*; γGlu = O=C(O)[C@H](CCC(=O)[*:2])N[*:1]

T1: rat calcitonin receptor (rat, UniProt P32214 25-516)
T1 construct: whole, on cells; Membranes prepared from transiently transfected BHK tk'ts 13 cells (Assay VIII); also called rCTR; rCT
T1 sequence (looked up): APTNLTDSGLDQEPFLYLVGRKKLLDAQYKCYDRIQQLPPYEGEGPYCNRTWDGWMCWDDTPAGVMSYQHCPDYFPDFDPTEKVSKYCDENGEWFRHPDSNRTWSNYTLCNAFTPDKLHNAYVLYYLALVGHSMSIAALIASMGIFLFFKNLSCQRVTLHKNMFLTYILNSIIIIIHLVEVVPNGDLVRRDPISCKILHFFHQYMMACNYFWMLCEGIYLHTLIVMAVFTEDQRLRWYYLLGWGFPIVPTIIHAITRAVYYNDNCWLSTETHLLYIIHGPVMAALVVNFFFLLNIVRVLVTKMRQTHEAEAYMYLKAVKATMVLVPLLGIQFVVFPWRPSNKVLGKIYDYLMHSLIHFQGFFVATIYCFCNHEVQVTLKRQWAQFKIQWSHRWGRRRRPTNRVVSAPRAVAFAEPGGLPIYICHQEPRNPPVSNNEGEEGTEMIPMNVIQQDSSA

T2: human calcitonin receptor (human, UniProt P30988 25-474)
T2 construct: whole, on cells; Membranes prepared from a stably transfected BHK cell line (Assay VII); also called hCTR; hCT
T2 sequence (looked up): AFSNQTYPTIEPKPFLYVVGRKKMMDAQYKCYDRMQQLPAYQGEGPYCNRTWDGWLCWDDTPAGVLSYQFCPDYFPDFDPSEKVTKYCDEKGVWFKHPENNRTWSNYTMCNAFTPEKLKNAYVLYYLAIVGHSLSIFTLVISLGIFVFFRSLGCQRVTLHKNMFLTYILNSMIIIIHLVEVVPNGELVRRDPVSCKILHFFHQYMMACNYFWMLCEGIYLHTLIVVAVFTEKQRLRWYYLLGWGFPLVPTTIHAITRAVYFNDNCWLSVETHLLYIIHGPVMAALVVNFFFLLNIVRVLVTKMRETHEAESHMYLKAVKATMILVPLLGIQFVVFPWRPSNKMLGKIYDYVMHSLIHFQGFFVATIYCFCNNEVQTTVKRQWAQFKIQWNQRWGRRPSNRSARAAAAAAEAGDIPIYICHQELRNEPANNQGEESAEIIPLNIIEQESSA

T3: rat amylin receptor (rat calcitonin receptor + rat RAMP 3) (rat, UniProt P32214 25-516; Q9JJ73 23-147)
T3 construct: whole, on cells; Membranes prepared from transiently transfected BHK tk'ts 13 cells (Assay VI); also called rAmylin-R; rAmylin
T3 sequence (looked up) 1: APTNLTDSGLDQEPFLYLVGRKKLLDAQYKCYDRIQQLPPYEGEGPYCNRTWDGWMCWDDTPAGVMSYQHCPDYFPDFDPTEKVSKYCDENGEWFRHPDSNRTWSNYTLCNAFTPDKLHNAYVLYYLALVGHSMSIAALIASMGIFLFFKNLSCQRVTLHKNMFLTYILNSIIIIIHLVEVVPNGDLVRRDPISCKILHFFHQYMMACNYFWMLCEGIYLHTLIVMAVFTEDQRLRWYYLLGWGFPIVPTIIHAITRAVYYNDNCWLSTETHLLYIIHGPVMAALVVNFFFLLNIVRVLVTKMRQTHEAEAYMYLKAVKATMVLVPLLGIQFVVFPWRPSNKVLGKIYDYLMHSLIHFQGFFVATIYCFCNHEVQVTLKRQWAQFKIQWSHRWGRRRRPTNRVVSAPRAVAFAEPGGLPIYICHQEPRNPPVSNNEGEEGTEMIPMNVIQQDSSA
T3 sequence (looked up) 2: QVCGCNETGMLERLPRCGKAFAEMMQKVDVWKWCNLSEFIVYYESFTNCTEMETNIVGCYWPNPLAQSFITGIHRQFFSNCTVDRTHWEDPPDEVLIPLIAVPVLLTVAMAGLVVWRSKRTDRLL


How the values were obtained:
[1] = molecular target: T1, rat calcitonin receptor; experiment: ratio of binding IC50s: rat calcitonin receptor / rat amylin receptor (reference)
[2] = molecular target: T2, human calcitonin receptor; experiment: ratio of binding IC50s: human calcitonin receptor / human amylin receptor (reference)
Method in brief: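 Membranes (35 ng/μL final) + SPA beads, 50 mM Hepes pH 7.4 buffer with 1 mM CaCl2, 5 mM MgCl₂, 0.1% OA, 0.02% Tween20; 120 min, 25° C, shaking; centrifuged, counted; IC₅₀ by one-site binding competition.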

[3] = molecular target: T1, rat calcitonin receptor; experiment: SPA competition vs 125I-calcitonin, membranes of BHK cells with rat calcitonin receptor (Assay VIII)
[4] = molecular target: T3, rat amylin receptor (rat calcitonin …); experiment: SPA competition vs 125I-rat amylin, membranes of BHK cells with rat calcitonin receptor + rat RAMP3 (Assay VI)

Row | Ratio rCT/rAmylin binding [1] | Ratio hCT/hAmylin binding [2] | IC50 [3] [nM] | IC50 [4] [nM] | Binder
1 | 156 | 145 | 104 | 0.668 | K([γGlu-γGlu-C20 diacid])CNTATCATQRLAHFLRHSSPNFGAIPSSTNVGSNTY-NH2 (disulfide 2-7; N-terminus assumed; SMILES CC[C@H](C)[C@H](NC(=O)[C@H](C)NC(=O)CNC(=O)[C@H](Cc1ccccc1)NC(=O)[C@H](CC(N)=O)NC(=O)[C@@H]1CCCN1C(=O)[C@H](CO)NC(=O)[C@H](CO)NC(=O)[C@H](Cc1c[nH]cn1)NC(=O)[C@H](CCCNC(=N)N)NC(=O)[C@H](CC(C)C)NC(=O)[C@H](Cc1ccccc1)NC(=O)[C@H](Cc1c[nH]cn1)NC(=O)[C@H](C)NC(=O)[C@H](CC(C)C)NC(=O)[C@H](CCCNC(=N)N)NC(=O)[C@H](CCC(N)=O)NC(=O)[C@@H](NC(=O)[C@H](C)NC(=O)[C@@H]1CSSC[C@H](NC(=O)[C@@H](N)CCCCNC(=O)CC[C@H](NC(=O)CC[C@H](NC(=O)CCCCCCCCCCCCCCCCCCC(=O)O)C(=O)O)C(=O)O)C(=O)N[C@@H](CC(N)=O)C(=O)N[C@@H]([C@@H](C)O)C(=O)N[C@@H](C)C(=O)N[C@@H]([C@@H](C)O)C(=O)N1)[C@@H](C)O)C(=O)N1CCC[C@H]1C(=O)N[C@@H](CO)C(=O)N[C@@H](CO)C(=O)N[C@H](C(=O)N[C@@H](CC(N)=O)C(=O)N[C@H](C(=O)NCC(=O)N[C@@H](CO)C(=O)N[C@@H](CC(N)=O)C(=O)N[C@H](C(=O)N[C@@H](Cc1ccc(O)cc1)C(N)=O)[C@@H](C)O)C(C)C)[C@@H](C)O, Analogue of human amylin; also called compound 92)
2 | 45.6 | 35.6 | 94.5 | 2.07 | K([γGlu-γGlu-C20 diacid])CNTATCATQRLAEFLRHSSPNFGAIPSSTNVGHNTY-NH2 (disulfide 2-7; N-terminus assumed; SMILES CC[C@H](C)[C@H](NC(=O)[C@H](C)NC(=O)CNC(=O)[C@H](Cc1ccccc1)NC(=O)[C@H](CC(N)=O)NC(=O)[C@@H]1CCCN1C(=O)[C@H](CO)NC(=O)[C@H](CO)NC(=O)[C@H](Cc1c[nH]cn1)NC(=O)[C@H](CCCNC(=N)N)NC(=O)[C@H](CC(C)C)NC(=O)[C@H](Cc1ccccc1)NC(=O)[C@H](CCC(=O)O)NC(=O)[C@H](C)NC(=O)[C@H](CC(C)C)NC(=O)[C@H](CCCNC(=N)N)NC(=O)[C@H](CCC(N)=O)NC(=O)[C@@H](NC(=O)[C@H](C)NC(=O)[C@@H]1CSSC[C@H](NC(=O)[C@@H](N)CCCCNC(=O)CC[C@H](NC(=O)CC[C@H](NC(=O)CCCCCCCCCCCCCCCCCCC(=O)O)C(=O)O)C(=O)O)C(=O)N[C@@H](CC(N)=O)C(=O)N[C@@H]([C@@H](C)O)C(=O)N[C@@H](C)C(=O)N[C@@H]([C@@H](C)O)C(=O)N1)[C@@H](C)O)C(=O)N1CCC[C@H]1C(=O)N[C@@H](CO)C(=O)N[C@@H](CO)C(=O)N[C@H](C(=O)N[C@@H](CC(N)=O)C(=O)N[C@H](C(=O)NCC(=O)N[C@@H](Cc1c[nH]cn1)C(=O)N[C@@H](CC(N)=O)C(=O)N[C@H](C(=O)N[C@@H](Cc1ccc(O)cc1)C(N)=O)[C@@H](C)O)C(C)C)[C@@H](C)O, Analogue of human amylin; also called compound 87)
